# Data as given in patent US5773001 (American Cyanamid Company, dated 1998).
# Like-named read-outs stand apart in the source and are kept apart here.
# T1: glycoprotein antigen present on colon cancer cells, recognized by A33 (Homo sapiens (Human)) (UniProt Q99795)
# T1 sequence: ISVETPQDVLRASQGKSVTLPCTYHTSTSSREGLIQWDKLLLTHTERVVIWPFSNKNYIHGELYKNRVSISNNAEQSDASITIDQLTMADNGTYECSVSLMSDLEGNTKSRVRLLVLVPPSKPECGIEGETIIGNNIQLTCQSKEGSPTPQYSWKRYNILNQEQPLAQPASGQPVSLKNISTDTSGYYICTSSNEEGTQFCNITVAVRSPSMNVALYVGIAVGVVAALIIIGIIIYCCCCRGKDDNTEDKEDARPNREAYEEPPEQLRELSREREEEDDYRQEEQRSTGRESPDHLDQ
# How the values were obtained:
# [1] = molecular target: T1, glycoprotein antigen present on colon cancer cells, recognized by A33 (Homo sapiens (Human)); test: competition on Colo205 cells, FACScan; competitor FITC-labelled murine A33
# CD33 antigen (human) [2] = molecular target: CD33 antigen (human) (UniProt P20138)
# CD33 antigen (human) [3] = molecular target: CD33 antigen (human) (UniProt P20138); test: competition with 125I-labelled native antibody on HEL 92.1.7 cells; IC50 (reference) / IC50 (sample)
# [4] = molecular target: T2, polymorphic epithelial mucin (PEM) (human, UniProt P15941); test: competition EIA on PEM-coated plates; competitor biotinylated CTM01 MAb
# CD33 antigen (human) [5] = molecular target: CD33 antigen (human) (UniProt P20138); remark: listed apart in the source
# CD33 antigen (human) [6] = molecular target: CD33 antigen (human) (UniProt P20138); test: competition with 125I-labelled native antibody on HEL 92.1.7 cells; IC50 (reference) / IC50 (sample); remark: listed apart in the source
# CD33 antigen (human) [7] = molecular target: CD33 antigen (human) (UniProt P20138); test: competition binding on HL60 cells against murine antibody
# soluble CD33 antigen = soluble CD33 antigen (Homo sapiens (Human), UniProt P20138); test: inhibition of binding to HL60 cells by pre-incubation with soluble antigen
# CD33 antigen (human) [8] = molecular target: CD33 antigen (human) (UniProt P20138); remark: listed apart in the source
# [9] = molecular target: polyepithelial mucin (PEM) antigen on cells (human) (UniProt P15941)
# [10] = molecular target: polyepithelial mucin (PEM) antigen on cells (human) (UniProt P15941); test: competition with 125I-labelled native antibody on A2780DDP cells; IC50 (reference) / IC50 (sample)
# [11] = molecular target: T2, polymorphic epithelial mucin (PEM); test: reactivity of affinity column fractions with the CTM01 MAb
# [12] = molecular target: polyepithelial mucin (PEM) antigen on cells (human) (UniProt P15941); remark: listed apart in the source
# [13] = molecular target: T1, glycoprotein antigen present on colon cancer cells, recognized by A33 (Homo sapiens (Human))
# [14] = molecular target: T1, glycoprotein antigen present on colon cancer cells, recognized by A33 (Homo sapiens (Human)); test: competition with 125I-labelled native antibody on COLO 205 cells; IC50 (reference) / IC50 (sample)
# Chain of polyepithelial mucin (PEM) antigen on cells (human) (P15941 24-1255): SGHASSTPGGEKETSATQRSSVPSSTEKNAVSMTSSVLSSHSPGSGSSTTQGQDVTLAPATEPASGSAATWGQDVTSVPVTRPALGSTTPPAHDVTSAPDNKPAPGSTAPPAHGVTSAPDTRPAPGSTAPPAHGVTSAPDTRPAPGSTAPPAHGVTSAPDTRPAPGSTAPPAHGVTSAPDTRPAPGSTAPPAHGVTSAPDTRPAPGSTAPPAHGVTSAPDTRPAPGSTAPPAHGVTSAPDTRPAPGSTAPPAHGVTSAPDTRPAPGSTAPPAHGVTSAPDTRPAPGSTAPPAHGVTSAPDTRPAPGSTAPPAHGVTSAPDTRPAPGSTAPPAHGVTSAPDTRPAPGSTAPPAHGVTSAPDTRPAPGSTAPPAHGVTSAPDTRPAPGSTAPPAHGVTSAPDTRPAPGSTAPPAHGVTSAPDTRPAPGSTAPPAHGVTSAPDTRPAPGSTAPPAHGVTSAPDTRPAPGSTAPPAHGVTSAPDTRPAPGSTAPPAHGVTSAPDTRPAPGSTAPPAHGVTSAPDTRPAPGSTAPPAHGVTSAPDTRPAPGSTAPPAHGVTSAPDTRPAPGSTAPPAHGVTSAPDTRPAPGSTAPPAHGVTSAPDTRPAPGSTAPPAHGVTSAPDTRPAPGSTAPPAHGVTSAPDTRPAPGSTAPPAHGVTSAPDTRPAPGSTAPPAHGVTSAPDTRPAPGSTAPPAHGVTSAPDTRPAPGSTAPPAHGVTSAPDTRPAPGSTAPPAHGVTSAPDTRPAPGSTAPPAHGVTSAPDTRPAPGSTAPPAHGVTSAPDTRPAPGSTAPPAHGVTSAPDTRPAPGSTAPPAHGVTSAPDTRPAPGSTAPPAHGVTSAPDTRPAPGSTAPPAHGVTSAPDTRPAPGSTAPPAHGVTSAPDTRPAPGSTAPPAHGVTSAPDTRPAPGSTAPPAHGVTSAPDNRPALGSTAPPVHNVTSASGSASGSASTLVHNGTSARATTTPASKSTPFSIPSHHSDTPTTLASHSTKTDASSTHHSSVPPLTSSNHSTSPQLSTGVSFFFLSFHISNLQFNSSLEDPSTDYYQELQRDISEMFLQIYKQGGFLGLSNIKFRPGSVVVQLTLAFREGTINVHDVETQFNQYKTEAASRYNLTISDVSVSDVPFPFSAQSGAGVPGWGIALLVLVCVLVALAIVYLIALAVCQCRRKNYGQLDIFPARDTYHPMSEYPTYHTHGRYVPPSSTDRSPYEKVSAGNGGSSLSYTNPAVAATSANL
molecule,measurement,setting,value
humanized A33 (antibody),relative potency against the murine antibody,[1],75%
Conjugate of 4-formylbenzoic acid (2) condensed with Calicheamicin N-acetyl gamma dimethyl hydrazide and m-P67.6 (antibody),In vitro IC50 (3H-thymidine incorporation),CD33 antigen (human) [2],4 ng/mL
same,Rel. Affinity,CD33 antigen (human) [3],1.05
"gL1gH2 (antibody, V domains shown) VH: QIQLVQSGAEVKKPGSSVKVSCKASGYTFTDYYINWMRQAPGQGLEWIGWIDPGSGNTKYNEKFKGRATLTVDTSTNTAYMELSSLRSEDTAFYFCAREKTTYYYAMDYWGQGTLVTVSS VL: DIQMTQSPSTLSASVGDRVTITCRSSKSLLHSNGDTFLYWFQQKPGKAPKLLMYRMSNLASGVPSRFSGSGSGTEFTLTISSLQPDDFATYYCMQHLEYPFTFGQGTKVEVKR",binding result,[4],binds
"Conjugate of 2-acetyl-10H-phenothiazine-10-hexanoic acid (32) condensed with Calicheamicin N-acetyl gamma dimethyl hydrazide and h-P67.6 (antibody, V domains shown, drug-linker amide on lysine side chains, sites not stated; drug-linker amide on lysine side chains, sites not stated) VH: EVQLVQSGAEVKKPGSSVKVSCKASGYTITDSNIHWVRQAPGQSLEWIGYIYPYNGGTDYNQKFKNRATLTVDNPTNTAYMELSSLRSEDTDFYYCVNGNPWLAYWGQGTLVTVSS VL: DIQLTQSPSTLSASVGDRVTITCRASESLDNYGIRFLTWFQQKPGKAPKLLMYAASNQGSGVPSRFSGSGSGTEFTLTISSLQPDDFATYYCQQTKEVPWSFGQGTKVEVKR",In vitro IC50 (3H-thymidine incorporation),CD33 antigen (human) [5],0.021 ng/mL
same,Rel. Affinity,CD33 antigen (human) [6],1.25
"h-P67.6 (antibody, V domains shown) VH: EVQLVQSGAEVKKPGSSVKVSCKASGYTITDSNIHWVRQAPGQSLEWIGYIYPYNGGTDYNQKFKNRATLTVDNPTNTAYMELSSLRSEDTDFYYCVNGNPWLAYWGQGTLVTVSS VL: DIQLTQSPSTLSASVGDRVTITCRASESLDNYGIRFLTWFQQKPGKAPKLLMYAASNQGSGVPSRFSGSGSGTEFTLTISSLQPDDFATYYCQQTKEVPWSFGQGTKVEVKR",loss in immunoaffinity against the murine antibody,CD33 antigen (human) [7],50%
same,binding result,soluble CD33 antigen,binds
"Conjugate of 4-acetylphenylacetic acid (33) condensed with Calicheamicin N-acetyl gamma dimethyl hydrazide and h-P67.6 (antibody, V domains shown, drug-linker amide on lysine side chains, sites not stated; drug-linker amide on lysine side chains, sites not stated) VH: EVQLVQSGAEVKKPGSSVKVSCKASGYTITDSNIHWVRQAPGQSLEWIGYIYPYNGGTDYNQKFKNRATLTVDNPTNTAYMELSSLRSEDTDFYYCVNGNPWLAYWGQGTLVTVSS VL: DIQLTQSPSTLSASVGDRVTITCRASESLDNYGIRFLTWFQQKPGKAPKLLMYAASNQGSGVPSRFSGSGSGTEFTLTISSLQPDDFATYYCQQTKEVPWSFGQGTKVEVKR",Rel. Affinity,CD33 antigen (human) [6],0.91
same,In vitro IC50 (3H-thymidine incorporation),CD33 antigen (human) [8],< 0.005 ng/mL
"Conjugate of 4-formylphenoxyacetic acid (1) condensed with Calicheamicin N-acetyl gamma dimethyl hydrazide and m-CT-M-01 (antibody, V domains shown, drug-linker amide on lysine side chains, sites not stated; drug-linker amide on lysine side chains, sites not stated) VH: QIQLQQSGPELVKPGASVKISCKASGYTFTDYYINWMKQKPGQGLEWIGWIDPGSGNTKYNEKFKGKATLTVDTSSSTAYMQLSSLTSEDTAVYFCAREKTTYYYAMDYWGQGTSVTVSA VL: DIVMTQAAPSVPVTPGESLSISCRSSKSLLHSNGDTFLYWFLQRPGQSPQLLIYRMSNLASGVPDRFSGSGSGTAFTLRVSRVEAEDVGVYYCMQHLEYPFTFGAGTKLELKR",In vitro IC50 (3H-thymidine incorporation),[9],1.5 ng/mL
same,Rel. Affinity,[10],0.84
"CTM01 MAb (antibody, V domains shown) VH: QIQLQQSGPELVKPGASVKISCKASGYTFTDYYINWMKQKPGQGLEWIGWIDPGSGNTKYNEKFKGKATLTVDTSSSTAYMQLSSLTSEDTAVYFCAREKTTYYYAMDYWGQGTSVTVSA VL: DIVMTQAAPSVPVTPGESLSISCRSSKSLLHSNGDTFLYWFLQRPGQSPQLLIYRMSNLASGVPDRFSGSGSGTAFTLRVSRVEAEDVGVYYCMQHLEYPFTFGAGTKLELKR",binding result,[11],binds
"Conjugate of 4-formylbenzoic acid (2) condensed with Calicheamicin N-acetyl gamma dimethyl hydrazide and m-CT-M-01 (antibody, V domains shown, drug-linker amide on lysine side chains, sites not stated; drug-linker amide on lysine side chains, sites not stated) VH: QIQLQQSGPELVKPGASVKISCKASGYTFTDYYINWMKQKPGQGLEWIGWIDPGSGNTKYNEKFKGKATLTVDTSSSTAYMQLSSLTSEDTAVYFCAREKTTYYYAMDYWGQGTSVTVSA VL: DIVMTQAAPSVPVTPGESLSISCRSSKSLLHSNGDTFLYWFLQRPGQSPQLLIYRMSNLASGVPDRFSGSGSGTAFTLRVSRVEAEDVGVYYCMQHLEYPFTFGAGTKLELKR",Rel. Affinity,[10],0.9
same,In vitro IC50 (3H-thymidine incorporation),[12],5.6 ng/mL
"Conjugate of 4-(4-acetylphenoxy)butanoic acid (7) condensed with calicheamicin N-acetyl gamma dimethyl hydrazide and m-A33 (antibody, V domains shown, drug-linker amide on lysine side chains, sites not stated; drug-linker amide on lysine side chains, sites not stated) VH: EVKLVESGGGLVKPGGSLKLSCAASGFAFSTYDMSWVRQTPEKRLEWVATISSGGSYTYYLDSVKGRFTISRDSPRNTLYLQMSSLRSEDTALYYCAPTTVVPFAYWGQGTLVTVSA VL: DIVMTQSQKFMSTSVGDRVSITCKASQNVRTVVAWYQQKPGQSPKTLIYLASNRHTGVPDRFTGSGSGTDFTLTISNVQSEDLADYFCLQHWSYPLTFGSGTKLEVKR",In vitro IC50 (3H-thymidine incorporation),[13],3.32 ng/mL
same,Rel. Affinity,[14],0.68
